Several values for one entry are separate records, joined by “and”; a condition that tells them apart may be missing. Equal values may be shown once.
Conditions: whole UniProt chain shown
[1] = Bacillus subtilis (strain 168), pH 7, Thermal, CD, Potassium phosphate 50 mM, reversible: yes
[2] = Bos taurus, pH 2, 35 °C, Urea, NMR, Unknown, reversible: no
[3] = Bos taurus, pH 2.2, 25 °C, GdnHCl, CD, Sodium cacodylate 50 mM, NaCl 50 mM
[4] = Bos taurus, pH 3, Thermal, DSC, Tris-HCl 10 mM
[5] = Bos taurus, pH 4.2, Thermal, DSC, Tris-HCl 10 mM
[6] = Bos taurus, pH 5.2, Thermal, DSC, Tris-HCl 10 mM
[7] = Bos taurus, pH 6.2, Thermal, DSC, citrate 10 mM
[8] = Bos taurus, pH 6.3, 25 °C, GdnHCl, CD, Sodium acetate 100 mM, CaCl2 2 mM, transition: 3
[9] = Bos taurus, pH 6.3, 25 °C, GdnHCl, CD, Sodium acetate 100 mM, CaCl2 2 mM
[10] = Bos taurus, pH 6.3, 25 °C, Thermal, CD, imidazole-HCl 40 mM
[11] = Bos taurus, pH 7, 4.5 °C, GdnHCl, CD, cacodylate 50 mM, NaCl 0.1 M
[12] = Bos taurus, pH 7, 25 °C, GdnHCl, CD, sodium cacodylate 50 mM, NaCl 50 mM
[13] = Bos taurus, pH 7, Thermal, CD, C2H6AsNaO2 50 mM, NaCl 50 mM
[14] = Bos taurus, pH 7.5, Thermal, DSC, Tris-HCl 10 mM, CaCl2 260 micro M
[15] = Bos taurus, pH 8, 25 °C, GdnHCl, CD, Tris-HCl 20 mM
[16] = Bos taurus, pH 8, 25 °C, Thermal, CD, borate 10 mM, NaCl 0.01-1.0 M
[17] = Bos taurus, pH 8, 25 °C, Thermal, DSC, Tris-HCl 10 mM, reversible: yes
[18] = Bos taurus, pH 8, Thermal, DSC, Tris-HCl 5 mM
[19] = Bos taurus, pH 8, Thermal, DSC, Tris-HCl 10mM, reversible: yes
[20] = Bos taurus, pH 8, Thermal, DSC, borate 10 mM, NaCl 0.2 M, reversible: yes (>95%)

B1: Phosphocarrier protein HPr wild type, P08877 (protein)
chain: MAQKTFKVTADSGIHARPATVLVQTASKYDADVNLEYNGKTVNLKSIMGVMSLGIAKGAEITISASGADENDALNALEETMKSEGLGE
denaturant midpoint (higher = more stable) (Bacillus subtilis (strain 168), pH 7, 30 °C, Urea, CD, Potassium phosphate 50 mM, reversible: yes): 3.93 M | Tm [1]: 73.6 °C and 77.5 °C | unfolding enthalpy (van 't Hoff) [1]: 59 kcal/mol and 63 kcal/mol

B2: wild type, B8YLY0 (protein)
chain: MKKVLMAFIICLSLILSVLAAPPSGAKAESVHNPVVLVHGISGASYNFFAIKNYLISQGWQSNKLYAIDFYDKTGNNLNNGPQLASYVDRVLKETGAKKVDIVAHSMGGANTLYYIKYLGGGNKIQNVVTLGGANGLVSSTALPGTDPNQKILYTSIYSLNDQIVINSLSRLQGARNIQLYGIGHIGLLSNSQVNGYIKEGLNGGGLNTN
denaturant midpoint (higher = more stable) (Bacillus subtilis, pH 0.8, 25 °C, GdnHCl, CD, KCl-HCl 20 mM, reversible: No): 3 M | denaturant midpoint (higher = more stable) (Bacillus subtilis, pH 0.8, 25 °C, GdnHCl, Fluorescence, KCl-HCl 20 mM, reversible: No): 2.6 M | Tm (Bacillus subtilis, pH 0.8, Thermal, CD, KCl-HCl 20 mM, reversible: No): 75 °C | Tm (Bacillus subtilis, pH 4, Thermal, Fluorescence, Sodium acetate 50 mM, reversible: Yes): 45 °C | unfolding free energy (Bacillus subtilis, pH 5.8, 25 °C, Urea, Fluorescence, NaAc 20 mM, reversible: Yes): 11.2 kcal/mol | unfolding free energy (Bacillus subtilis, pH 5.8, 25 °C, Urea, NMR, NaAc 20 mM, reversible: Yes): 9.56 kcal/mol | Tm (Bacillus subtilis, pH 5.8, Thermal, DSC, NaAc 20 mM, reversible: No): 53 °C | Tm (Bacillus subtilis, pH 6, Thermal, CD, phosphate buffer 20 mM): 54.6 °C | denaturant midpoint (higher = more stable) (Bacillus subtilis, pH 7, 25 °C, GdnHCl, CD, Sodium phosphate 20 mM, reversible: Yes): 1 M | denaturant midpoint (higher = more stable) (Bacillus subtilis, pH 7, 25 °C, GdnHCl, Fluorescence, Sodium phosphate 20 mM, reversible: Yes): 0.8 M | unfolding free energy (Bacillus subtilis, pH 7, 25 °C, Urea, Fluorescence, Sodium acetate 50 mM, reversible: Yes): 11.4 kcal/mol | Tm (Bacillus subtilis, pH 7, Thermal, CD, Sodium phosphate 20 mM, reversible: No): 47 °C | unfolding free energy (Bacillus subtilis, pH 7.2, 25 °C, GdnHCl, CD, Sodium phosphate 50 mM, reversible: Yes): 11.4 kcal/mol and 13.8 kcal/mol

B3: Beta-glucanase wild type, K0A689 (protein)
chain: MKRVLLILVTGLFMSLFAVTSTASAQTGGSFFDPFNGYNSGFWQKADGYSNGNMFNCTWRANNVSMTSLGEMRLALTSPSYNKFDCGENRSVQTYGYGLYEVRMKPAKNTGIVSSFFTYTGPTDGTPWDEIDIEFLGKDTTKVQFNYYTNGAGNHEKIVDLGFDAANAYHTYAFDWQPNSIKWYVDGQLKHTATNQIPTTPGKIMMNLWNGTGVDEWLGSYNGVNPLYAHYDWVRYTKK
Tm (Bacillus tequilensis, pH 6.5, Thermal, Activity, phosphate buffer): 62 °C

B4: Alpha-lactalbumin wild type, P00711 (protein)
chain: MMSFVSLLLVGILFHATQAEQLTKCEVFRELKDLKGYGGVSLPEWVCTTFHTSGYDTQAIVQNNDSTEYGLFQINNKIWCKDDQNPHSSNICNISCDKFLDDDLTDDIMCVKKILDKVGINYWLAHKALCSEKLDQWLCEKL
denaturant m value [2]: 0.33 kcal/mol/M | denaturant midpoint (higher = more stable) [2]: 4.45 M | unfolding free energy [2]: 1.46 kcal/mol | denaturant m value [3]: 0.76 kcal/mol/M | denaturant midpoint (higher = more stable) [3]: 3.16 M | unfolding free energy [3]: 2.41 kcal/mol | Tm [4]: 29.6 °C | heat capacity change of unfolding [4]: 0.93 kcal/mol/K | unfolding enthalpy (calorimetric) [4]: 36.1 kcal/mol | Tm [5]: 56.9 °C | heat capacity change of unfolding [5]: 1.17 kcal/mol/K | unfolding enthalpy (calorimetric) [5]: 64.5 kcal/mol | Tm [6]: 62.8 °C | heat capacity change of unfolding [6]: 1.26 kcal/mol/K | unfolding enthalpy (calorimetric) [6]: 71.9 kcal/mol | Tm [7]: 51.2 °C | heat capacity change of unfolding [7]: 1.61 kcal/mol/K | unfolding enthalpy (calorimetric) [7]: 59.1 kcal/mol | unfolding enthalpy (van 't Hoff) [7]: 61.5 kcal/mol | denaturant m value [8]: 1.85 kcal/mol/M | unfolding free energy [8]: 4.61 kcal/mol | denaturant m value [9]: 2.6 kcal/mol/M | unfolding free energy [9]: 6.21 kcal/mol | heat capacity change of unfolding [10]: 0.96 kcal/mol/K | unfolding enthalpy (van 't Hoff) [10]: 31.1 kcal/mol | unfolding free energy (Bos taurus, pH 6.65, 25 °C, GdnHCl, CD, potassium phosphate 0.01-0.03 M, KCl 0.1 M, reversible: yes): 6.5 kcal/mol | heat capacity change of unfolding (Bos taurus, pH 6.8, 25 °C, Thermal, CD, phosphate 10-20 mM, KCl 0.1 M): 1.49 kcal/mol/K | denaturant m value [11]: 2.27 kcal/mol/M | unfolding free energy [11]: 3.66 kcal/mol | denaturant m value (Bos taurus, pH 7, 25 °C, GdnHCl, CD, sodium cacodylate 50 mM, NaCl 50 mM, transition: 3): 1.79 kcal/mol/M and 0.64 kcal/mol/M | denaturant m value [12]: 2.43 kcal/mol/M | unfolding free energy [12]: 7.29 kcal/mol | Tm [13]: 25 °C | heat capacity change of unfolding [13]: 1.1 kcal/mol/K | unfolding enthalpy (van 't Hoff) [13]: 38 kcal/mol | Tm [14]: 64.2 °C | unfolding enthalpy (calorimetric) [14]: 72.2 kcal/mol | denaturant m value [15]: 0.84 kcal/mol/M | denaturant midpoint (higher = more stable) [15]: 2.46 M | unfolding free energy [15]: 2.07 kcal/mol | heat capacity change of unfolding [16]: 1.18 kcal/mol/K | unfolding enthalpy (van 't Hoff) [16]: 44.7 kcal/mol | heat capacity change of unfolding [17]: 1.03 kcal/mol/K | unfolding free energy [17]: 5.02 kcal/mol and 3.59 kcal/mol | Tm [18]: 28.2 °C | heat capacity change of unfolding [18]: 1.48 kcal/mol/K | unfolding enthalpy (calorimetric) [18]: 35.2 kcal/mol | Tm [19]: 55.2 °C | unfolding enthalpy (calorimetric) [19]: 55 kcal/mol | Tm [20]: 71.3 °C | heat capacity change of unfolding [20]: 1.6 kcal/mol/K | unfolding enthalpy (calorimetric) [20]: 80 kcal/mol | unfolding enthalpy (van 't Hoff) [20]: 84 kcal/mol

From FireProtDB
